Measurements published in PMC9776037.

Experiments:
[1] = target: α2 portion of the human α2δ1 protein (voltage-sensitive calcium channel subunit) (human); assay: localized surface plasmon resonance (LSPR); α2-functionalized sensors incubated overnight with full-length PLN (10 nM) or PLN Dm III-2 (100 nM), no GBP; Δλ_LSPR
[2] = target: α2 portion of the human α2δ1 protein (voltage-sensitive calcium channel subunit) (human); assay: localized surface plasmon resonance (LSPR); α2 amide-coupled to gold triangular nanoprisms on glass; sensors incubated with 1 × 10^−16 to 1 × 10^−8 M PLN or PLN domains in PBS pH 7.2; Δλ_LSPR by UV-visible spectroscopy; KD from Hill-Langmuir fit with extrapolated Bmax

Row | Substance | Δλ LSPR [1] | Kd [2]
1 | Perlecan domain III-2, cysteine-free globular region (laminin IV-A2) (domain or fragment) | 12.7 nm | 8e-05 µM
2 | Perlecan domain IV-1 (PLN Dm IV-1) (domain or fragment) |  | 0.14 µM
3 | Perlecan domain IV-2 (PLN Dm IV-2) (domain or fragment) |  | 430 µM
4 | Perlecan domain IV-3 (PLN Dm IV-3) (domain or fragment) |  | 280 µM
